± gives the uncertainty stated by the source.
Experiment: amyloid nucleation score (Sup35N fusion, yeast selection) (log enrichment); library NNK3; higher = more nucleation; inactive = no reads after selection
Procedure, shortened: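 Growth for 7 days at 30°C on medium lacking adenine and uracil followed a 24-hour induction with 100 μM copper sulfate of psi-negative yeast expressing peptides of 20 random codons fused to Sup35N. Input and output plasmid inserts were sequenced with Illumina, and sequences with under 100 input reads were excluded. Nucleation score is the DiMSum log enrichment of output over input reads, centred on the mode score of non-aggregating sequences.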

Substance	amyloid nucleation score
RFIGFYPLLQGKNAASGRVL	inactive
TFAFYLTILMSMFDRYFTWP	inactive
SCTVKLDCNAVDSVSMDDVD	inactive
TLNMEFIQFTRSFGKSISPC	inactive
QCKGCFSPVFKSCFICR	inactive
CGRNAAVSNARRCCSSKVCM	inactive
QLFVRVIWDMP	0.186 ± 0.45
PDNGLRAIMTAGPVFSRQSN	inactive
RQQRLRRKPLFWDNQAKANY	0.211 ± 0.24
WEWVRPFFLLGYAPEPNITI	0.232 ± 0.48
YFIMSFSLQNFMGSPLNRLG	inactive
FIDMN	inactive
NDVKFGSGR	inactive
GFEDSSIT	inactive
GKPWCNYSDYFYCTLLVDCK	-0.246 ± 0.82
NEHSYLSGSWYPRSHLIYYC	inactive
SSDSIKTWWKNTNVICVSGG	inactive
FVYTHIWGVGLGKML	0.632 ± 0.14
HILHLRLDYFLGA	0.401 ± 0.3
ASSSNGIVTFNNPR	inactive
SISCCGIILIKNQASMPWAS	2.96 ± 0.079
IIRVRQTLSVRFIYIF	inactive
AGKKLSRITTWSNTLLDPKS	inactive

Substance	amyloid nucleation score
GTMYVGSGGYEKL	inactive
IQDFSCFQRSEAVTIQGRS	inactive
RGTKAYMGVVCSTPTIFCPN	inactive
WQVVGYKNLDLCVNLATTDW	inactive
LYYSWKKEYQFIWVVHTFAK	inactive
VTWAAMWASRRVIQVITLRL	inactive
VLPVHNKVNITLTVSAPWLW	inactive
GFMLWTHKKLARPEATAV	inactive
VDCMATSQGRIRKYVNFVIW	2.35 ± 0.08
VHKFDSL	inactive
FTVCFVLPIAITPMMWDIWY	inactive
IAGKIEIIVVRCYSLVGPCT	0.305 ± 0.19
LVPVMTFNWPKPSNGVSAVA	-0.413 ± 1
LYCRLCVSIFM	-0.02 ± 1.1
GVGTYI	inactive
HIINCFIFLNVTDYTIVFLL	2.21 ± 0.074
LLESTSF	inactive
SSNDDFWIKGGQCEYIRFRL	inactive
FNDSLSLTVTRVIF	inactive
VMQYLLMAEKNQLRLQRFAR	inactive
YNMFACGVCTLFKVGKANKF	2.96 ± 0.074
FGVVH	inactive
HSSNWCSVVITLCCTLRKDY	0.748 ± 0.19

Substance	amyloid nucleation score
WCMFMMSNWRVRPADLFCIS	inactive
CLGLHQILM	inactive
FSCIPCG	inactive
CLNGSCAMLSGLVCLLCNRQ	2.38 ± 0.058
FYCGFAMGFILCCQNYTFVT	2.63 ± 0.076
RKNVRMMA	inactive
TGPMGI	inactive
VSRGDTINIISSVDCVKTYF	inactive
DTFMDSMLYTGLSIPCKVLL	-0.116 ± 1.4
LYGLLSCSERVVKLWFWSWV	inactive
RRMLTRTFRG	inactive
VIRDQQIIVKCCNLVSICGI	1.32 ± 0.17
CKCEQVFLGLNLRYKEHDAW	inactive
CTHHKNACL	inactive
HIVMVLRSLAYVSSSTHGRR	inactive
SAWHIRVERIGVMYRVHCYD	0.747 ± 0.18
LSPQSIVSYYTLWTFGFTAC	-0.28 ± 0.77
TISFGMMHLAIDWVIVN	inactive
YFNLSRIMLNELMCLVIIRQ	inactive
WPFHWSFSFVISMYMSWGNS	inactive
TCFSYLIFSCGFHSY	0.404 ± 0.64
TIFEAA	inactive
SWFPP	inactive

Substance	amyloid nucleation score
DIYMMLICGWGLGKLIPGFM	inactive
VFNGFVLKVEQVSIGVC	inactive
CLMKIWLTVEGTSHRALGFR	inactive
QVNFGRGQRTLVWTGIRCSH	inactive
MFSCWYIISWCIEVHDGVKI	inactive
GSISLASWVVYSIAIR	inactive
LVDHLFDMITMHDGPCQLHQ	inactive
FCYLPRALCEVLNRCLLNSL	inactive
VVASDNSTMVENWSFNGKMS	inactive
SNCRCIEGVFYHTYNQKAVR	inactive
VGNWYGKTIGMSSLEFLMSR	inactive
PSYFEYFVRIGFFG	inactive
KDWQTIYQLRSVTFFDLLVV	inactive
LSGRVERVW	inactive
NCIAWYQW	-0.393 ± 0.7
YLASEVYRV	inactive
SIRTWRVPRDCSAYFNGLSW	inactive
HGQFMWLMYYMNILSFLLGF	inactive
SGNDISCPATSIHFRVGVRS	inactive
VNNKIVVWTIMSSNDERLPS	1.54 ± 0.082
NTSYLDASSNGNQRCIHSHK	inactive
LRPCRDRRFLVPDDYSSVFF	inactive
SKESISLECIHRVWFCGTGL	0.185 ± 0.38

Substance	amyloid nucleation score
DRNEVLDQNVVDSEISTVLP	inactive
VSFHRRKLNHCNCRML	inactive
CSGSDKVWTCLFLYAKKPRW	inactive
SMATDAWGTTKF	inactive
LFYDCELGLTSVRWLGWGRN	inactive
IGYKLNFCASILDFSYCKIY	1.07 ± 0.19
PGSGIHNWMNCYRSLKE	inactive
VSTHVLHPYTYT	inactive
FISRRIRNVILWCYFM	inactive
IYLECIYNCFYVYKIMLHRV	inactive
LNMCLSLVSVLRAVSVYLWT	inactive
VDFRYCCGFV	0.824 ± 0.26
TNTYF	inactive
NMMAYFVFLGMKANFYMWVW	inactive
SCFCNVFVVDMMSLSMGDIL	2.4 ± 0.05
CNVNIHYFGTV	inactive
VRRTLYISMRLRLIPYLSNV	1.62 ± 0.11
YIFDMSTGQDSMVY	inactive
IMLLLYSESYLTPRTVVNSR	inactive
MEYWYYDMD	inactive
LLSAMYNHPADMIAKLGKGG	inactive
GSRVN	-0.352 ± 0.36
YFFSVLG	inactive

Substance	amyloid nucleation score
KSWNGQMYCVASGKQKTIMY	inactive
LSDFL	inactive
QCPKCDLLMRDSDIRFTHAG	inactive
VFVQTLILWVHSRIAALQDS	inactive
ILHKGNS	inactive
ILCGESTR	inactive
YYFRAQADCFMYICVLDLDG	inactive
CYFVSVKLLTGVKLSHKYL	1.25 ± 0.15
VKRGFEWFCSMTHFNTSCIR	inactive
SCGKGRYWVLNAMINPICKQ	1.14 ± 0.096
CVVNSGFNLSCMIVSQSVSL	inactive
VRAPTYVGAWSPGEFNYRSD	inactive
MDGPGVTFCPEVLDKWDGSI	-0.205 ± 1.4
KLPNYLYRLSLFPVTLVSTM	inactive
CYSGCEWSTYMLMGVLKVVS	inactive
FLTSVGIAYAKFRLGYSCLL	inactive
IFVKDFLII	inactive
DLCVLAMASFEVAIAHGRPR	0.172 ± 0.88
NHLLFSIPRSIRWKACVQ	inactive
RITKRRHSVIPCP	inactive
NMLMMWCFLVSYNEKMRKTV	inactive
HPCFLW	inactive
TCMYLRDHR	-0.337 ± 0.98

Substance	amyloid nucleation score
SPGYINGNGSSVRSVFNL	inactive
LVIWHIVKTAVMWTARTERL	-0.409 ± 1.5
LDTYTRNYLD	inactive
GSALVLCELGSVAKSLSGNL	inactive
SFDFHRVMIPRDRPDYHPSM	inactive
EIKYTDL	inactive
SLNNSMVWKYH	inactive
LSRGFYAS	inactive
TCSISIRAGLVLNPCWSDYA	inactive
FKLVGCGCNVMTFVSYLVNQ	1.98 ± 0.083
TIFFMYWLSPGFSPPI	0.148 ± 0.39
CDAHSLSMLRVQIK	inactive
CLDARYKMRV	inactive
LQRVFLENRTSVYSVTG	inactive
VFSRKKYRHPWMYAVTFGYC	inactive
FVTQFVEN	inactive
VNYHFYKFYGPWRVWNRTRA	1.95 ± 0.086
IPIFWCYI	inactive
DLIVILLTSYMYENVVVLNF	inactive
SYDGWCVTYFDV	inactive
VSVEFRSDSARWGNDVCEET	inactive
SERPDFMDYEEMLGYAVKWR	inactive
